Test results reported in patent publication US20120122958, “TRANSCRIPTIONAL REPRESSION LEADING TO PARKINSON'S DISEASE” (published 2012).

Biological target: PARIS (ZNF746) (Homo sapiens, UniProt Q6NUN9 SEQ:1-644)
Assay: EMSA; competed by unlabeled WT oligo
Conditions: tags: GST; label: 32P

Sequence of PARIS (ZNF746) (Q6NUN9 whole entry): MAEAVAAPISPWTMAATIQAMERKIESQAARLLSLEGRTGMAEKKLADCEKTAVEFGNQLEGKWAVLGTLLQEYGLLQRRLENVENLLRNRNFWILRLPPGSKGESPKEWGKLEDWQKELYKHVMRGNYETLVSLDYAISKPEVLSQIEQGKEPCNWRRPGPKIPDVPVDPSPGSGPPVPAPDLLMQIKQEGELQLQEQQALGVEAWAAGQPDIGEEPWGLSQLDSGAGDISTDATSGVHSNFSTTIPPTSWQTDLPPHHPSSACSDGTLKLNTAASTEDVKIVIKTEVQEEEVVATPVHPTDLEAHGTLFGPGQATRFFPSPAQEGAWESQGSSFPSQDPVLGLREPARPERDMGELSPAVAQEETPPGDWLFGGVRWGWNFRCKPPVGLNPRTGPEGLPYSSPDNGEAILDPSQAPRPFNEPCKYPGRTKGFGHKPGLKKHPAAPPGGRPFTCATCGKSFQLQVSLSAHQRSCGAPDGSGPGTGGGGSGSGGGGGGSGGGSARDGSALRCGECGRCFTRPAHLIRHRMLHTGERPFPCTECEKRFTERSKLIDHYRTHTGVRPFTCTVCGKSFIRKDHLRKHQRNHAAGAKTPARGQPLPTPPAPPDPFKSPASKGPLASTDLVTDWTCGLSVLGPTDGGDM

B1: IRS1-WT (dsDNA)
DNA 1: AGTGTGTTGGTATTTTTCCCTCAGTTC
DNA 2: GAACTGAGGGAAAAATACCAACACACT
  binding result: binds

B2: IRS2-WT (dsDNA)
DNA 1: ACATACAGGCTATTTTGTTGATTAAAC
DNA 2: GTTTAATCAACAAAATAGCCTGTATGT
  binding result: binds

B3: IRS3-WT (dsDNA)
DNA 1: GCCACTTGCTTGTTTTGGAAGGAAAAT
DNA 2: ATTTTCCTTCCAAAACAAGCAAGTGGC
  binding result: binds
